Data: US20230062712A1 (SILVERBACK THERAPEUTICS, published 2023)
Blank lines part the entries; values can stand above or below the binder they belong to.

What was measured:
[1] = target: T1, rat ASGR1 on CHO-S cells (rat, UniProt P02706 1-284); test: flow cytometry (Guava) on CHO-S cells transfected with rat ASGR1
T1 construct: whole, on cells
T1 sequence (looked up): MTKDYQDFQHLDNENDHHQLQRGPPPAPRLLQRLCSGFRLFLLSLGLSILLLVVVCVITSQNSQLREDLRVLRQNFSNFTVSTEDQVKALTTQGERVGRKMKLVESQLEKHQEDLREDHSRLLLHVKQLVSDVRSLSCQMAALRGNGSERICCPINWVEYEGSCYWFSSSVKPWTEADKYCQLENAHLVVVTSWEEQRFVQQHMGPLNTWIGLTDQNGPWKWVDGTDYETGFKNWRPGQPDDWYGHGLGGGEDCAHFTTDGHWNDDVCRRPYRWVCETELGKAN
Protocol: Anti-human ASGR1 antibodies of this disclosure were examined for cross-reactivity with Cynomolgus macaque and rat ASGR1. Briefly, sequence encoding Cynomolgus macaque or rat ASGR1 was transiently transfected into CHO-S cells. Transfected cells were before performing cell binding assay. A total of about 1.5×10⁴ transfected cells/well were added to 96-well V-bottom assay plate, incubated at 37° C., 5% CO2 for 48-72 hours, and then washed with culture medium before adding 100 μl of each ASGR1 antibody at different concentrations starting from 100 nM and 3-fold dilutions to a total of eight wells. The cells with antibody were incubated for 40 minutes at 4° C., then washed three times with 200 μl of fresh culture medium. To each well was added 50 μl PE conjugated goat anti-human Fc (SouthernBiotech) at 1:200 dilution in culture medium and then incubated at 4° C. for 20 minutes. After washing the plate once, the treated cells were resuspended in 200 μl culture medium and then the stained cells were analyzed on GUAVA® using Incyte software.

[2] = target: T2, His-tagged rat C-type lectin domain family 10 member A (CLEC10A) extracellular domain (rat) (UniProt P49301); test: Octet, biotinylated mAb on streptavidin sensors, monomeric rat CLEC10A ECD from 200 nM in 3x dilutions, bivalent binding model
T2 sequence (looked up): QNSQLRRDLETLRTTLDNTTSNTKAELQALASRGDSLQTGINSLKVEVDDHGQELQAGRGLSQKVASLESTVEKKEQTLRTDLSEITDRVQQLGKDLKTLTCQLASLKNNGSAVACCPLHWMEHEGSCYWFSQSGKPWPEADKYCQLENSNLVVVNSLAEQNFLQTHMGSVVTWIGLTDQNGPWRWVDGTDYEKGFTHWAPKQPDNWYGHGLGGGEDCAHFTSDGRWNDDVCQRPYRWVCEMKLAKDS

[3] = target: T2, His-tagged rat C-type lectin domain family 10 member A (CLEC10A) extracellular domain (rat); test: Octet, His-tagged rat CLEC10A ECD on Penta-His sensors, antibody at 25 µg/mL

B1: hzH8K-1 (antibody, V domains shown)
VH: QVQLQESGPGLVKPSQTLSLTCTVSGGSISSDYAWNWIRQHPGKGLEWIGYRSYRGSTSYNPSLKSRVTISVDTSKNQFSLKLSSVTAADTAVYYCARRGYYGSSSHWYFDVWGQGTTVTVSS
VL: DIQMTQSPSSLSASVGDRVTITCRASENIYSYLAWYQQKPGKAPKLLIYNAKTLAEGVPSRFSGSGSGTDFTLTISSLQPEDFATYYCQHHYGTPLTFGGGTKVEIK
notes: IgG1 and kappa constant regions
binding result [1]: no binding (tested: starting from 100 nM)

B2: hzL4L-7 (antibody, V domains shown)
VH: QVQLQESGPGLVKPSQTLSLTCTVSGYSISSDYAWNWIRQHPGKGLEWIGYISYSGSTRYNPSLKSRVTITRDTSKNQFSLKLSSVTAADTAVYYCARRYRYDEGYGMDYWGQGTTVTVSS
VL: DIQMTQSPSSLSASVGDRVTITCRASENIYSNLAWYQQKPGKAPKLLIYAATNLADGVPSRFSGSGSGTDFTLTISSLQPEDFATYYCQHFWGTPPWTFGGGTKVEIK
notes: as for B1
binding result [1]: no binding (tested: starting from 100 nM)

Kd [2]: 28.1 nM
Response (nm) [3]: 0.598 nm
B3: ASGR1 mAb-B (antibody, from another filing, V domains shown)
VH: EVQLVESGGGLVKPGGSLRLSCAASGFTFSSYSMNWVRQAPGKGLEWVSSISGSSSYIYYADSVKGRFTISRDNAKNSLYLQMNSLRAEDTAVYFCARGGSRGFDPWGQGTLVTVSS
VL: DIQMTQSPSSLSASVGDRVTITCRASQSITSYLNWYQQKPGKAPKLLIYTASSLQSGVPSRFSGSGSGTDFTLTISSLQPEDFATYYCQQSHSFPFTFGPGTKVDIK
